# Test results from publication PMC9249852, “Transcription factor paralogs orchestrate alternative gene regulatory networks by context-dependent cooperation with multiple cofactors”.
# B1: probe-Scr-Dll consensus (dsDNA)
# DNA 1: TGGGCCTGGTAATTAATTTAATTATCCAGGTCGTATGCCGTCTTCTGCTTG
# DNA 2: CAAGCAGAAGACGGCATACGACCTGGATAATTAAATTAATTACCAGGCCCA
# B2: probe-dsx (dsx-1) (dsDNA)
# DNA 1: AATATTTTATAAATTTAATAAATTGAGTCGTATGCCGTCTTCTGCTTG
# DNA 2: CAAGCAGAAGACGGCATACGACTCAATTTATTAAATTTATAAAATATT
# B3: probe-dpy (dpy-1) (dsDNA)
# DNA 1: ATCGTTAAATTACCGCAATTTGCATGTTCGTATGCCGTCTTCTGCTTG
# DNA 2: CAAGCAGAAGACGGCATACGAACATGCAAATTGCGGTAATTTAACGAT
# Experiments:
# Settings in all cases: protein: recombinant;recombinant; tags: N-terminal 6xHis (pQE30) and EGFP with TEV linker; C-terminal FLAG;N-terminal T7; C-terminal 6xHis; copies: 1;1; label: 5' biotin on strand 2 (SR1 primer); blunt
# EGFP-Scr-FLAG;T7-Dll-His [1] = target: T1, EGFP-Scr-FLAG;T7-Dll-His (Drosophila melanogaster?;Drosophila …, UniProt P09077;P20009 1-417;1-327, |); experiment: biotin-DNA pull-down, anti-FLAG western; Dll increases Scr binding, concentration-dependent; Dll on DNA not probed; Pull-down in 1 ml: 500 ul protein in dialysis buffer (20 mM HEPES pH 8.0, 200 mM NaCl, 10% glycerol, 2 mM MgCl2, 0.05% Tween-20) + 500 ul probe mix with 200 ul
# EGFP-Scr-FLAG;T7-Dll-His [2] = target: T1, EGFP-Scr-FLAG;T7-Dll-His; experiment: biotin-DNA pull-down, anti-FLAG western; Dll enhances Scr binding; Dll on DNA not probed; Pull-down in 1 ml: 500 ul protein in dialysis buffer (20 mM HEPES pH 8.0, 200 mM NaCl, 10% glycerol, 2 mM MgCl2, 0.05% Tween-20) + 500 ul probe mix with 200 ul
# EGFP-Scr-FLAG;T7-Dll-His [3] = target: T1, EGFP-Scr-FLAG;T7-Dll-His; experiment: biotin-DNA pull-down, anti-FLAG western; Dll assists Scr binding; Dll on DNA not probed; Pull-down in 1 ml: 500 ul protein in dialysis buffer (20 mM HEPES pH 8.0, 200 mM NaCl, 10% glycerol, 2 mM MgCl2, 0.05% Tween-20) + 500 ul probe mix with 200 ul
# T1 sequence (P09077 whole entry, chain 1 of 2): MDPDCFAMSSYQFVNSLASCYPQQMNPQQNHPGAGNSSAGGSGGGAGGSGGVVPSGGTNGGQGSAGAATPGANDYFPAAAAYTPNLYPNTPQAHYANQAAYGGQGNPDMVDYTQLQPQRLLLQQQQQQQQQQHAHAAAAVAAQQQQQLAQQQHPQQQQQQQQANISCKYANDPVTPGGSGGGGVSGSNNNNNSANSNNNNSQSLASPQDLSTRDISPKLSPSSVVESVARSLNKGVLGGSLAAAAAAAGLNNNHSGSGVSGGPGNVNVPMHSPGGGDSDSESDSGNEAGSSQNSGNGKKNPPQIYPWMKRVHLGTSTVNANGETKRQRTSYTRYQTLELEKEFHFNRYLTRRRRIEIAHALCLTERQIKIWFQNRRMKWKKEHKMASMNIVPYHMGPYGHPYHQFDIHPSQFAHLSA
# T1 sequence (P20009 whole entry, chain 2 of 2): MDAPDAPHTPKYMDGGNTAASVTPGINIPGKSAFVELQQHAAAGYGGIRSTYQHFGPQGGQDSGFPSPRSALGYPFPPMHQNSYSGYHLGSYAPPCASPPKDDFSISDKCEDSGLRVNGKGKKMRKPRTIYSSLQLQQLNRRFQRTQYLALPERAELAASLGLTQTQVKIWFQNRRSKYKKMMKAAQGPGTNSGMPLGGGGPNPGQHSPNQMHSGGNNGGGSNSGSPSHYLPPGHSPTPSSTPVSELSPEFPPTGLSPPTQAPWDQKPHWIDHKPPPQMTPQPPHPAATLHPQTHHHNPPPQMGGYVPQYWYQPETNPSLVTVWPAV
binder,measurement,setting,value
B1,binding result,EGFP-Scr-FLAG;T7-Dll-His [1],binds
B2,binding result,EGFP-Scr-FLAG;T7-Dll-His [2],binds
B3,binding result,EGFP-Scr-FLAG;T7-Dll-His [3],binds
